Test results published in patent publication US20260274985A1 (MYTHIC THERAPEUTICS, published 2026).
Residue numbers refer to the chain shown, from its start.

Experiments:
[1] = target: T1, Human TROP2 Protein, His Tag (Acro Biosystems) (human, UniProt P09758 27-274); experiment: BLI (Octet) [1/2]
T1 construct: Bought antigen used at 50 nM in the Octet screen; also called TACSTD2; not shown: His tag
T1 sequence (looked up): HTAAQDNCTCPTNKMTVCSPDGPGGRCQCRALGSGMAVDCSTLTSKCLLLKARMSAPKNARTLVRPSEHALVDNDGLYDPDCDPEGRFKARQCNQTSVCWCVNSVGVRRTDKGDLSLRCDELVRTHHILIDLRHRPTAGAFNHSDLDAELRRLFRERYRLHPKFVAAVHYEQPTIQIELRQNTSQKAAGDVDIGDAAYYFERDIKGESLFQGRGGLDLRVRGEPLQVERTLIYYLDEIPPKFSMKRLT
Procedure, shortened: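 Antibody variants from day-4 expression supernatants, diluted in 1×PBST pH 7.4 by expression level, captured on anti-human Fc tips. Association with 50 nM human TROP2-His in PBST pH 7.4 for 120 sec; dissociation in PBST pH 7.4 or pH 5.4 for 300 sec. Curves examined for koff at each pH versus parent antibody.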

[2] = target: TROP2 on TROP2-positive NCI-H1975 cells (human) (UniProt P09758); experiment: cell-based or functional assay; settings: scale: % greater cytotoxicity compared to WT datopotamab
[3] = target: T2, Human TROP2 Protein, His Tag (Acro Biosystems) (human, UniProt P09758 27-274); experiment: BLI (Octet), antibody on anti-human Fc sensor, 50 nM human TROP2-His, dissociation at pH 7.4 or 5.4; grade 2 = No change vs parent
T2 construct: Bought protein; also called TACSTD2; not shown: His tag
T2 sequence: T1 sequence (looked up)

[4] = target: T1, Human TROP2 Protein, His Tag (Acro …); experiment: Octet BLI, IgG on anti-human Fc sensor, 50 nM TROP2; 1 = pH dependent
[5] = target: T3, Human TROP2 Protein, His Tag (Acro Biosystems) (human, UniProt P09758 27-274); experiment: BLI (Octet), Ab on anti-human Fc sensor, 50 nM TROP2-His; 2 = No change vs parent
T3 construct: Bought protein; not shown: His tag
T3 sequence (looked up): T1 sequence (looked up)
Experimental: The resulting diluted supernatants were then captured on an anti-human Fc sensor (Forte Bio). A baseline was established using 1×PBST (50 mM Potassium Phosphate Buffer+150 mM NaCl+0.05% Tween 20) pH 7.4, and the sensor was associated with 50 nM of TROP2 (Human TROP2 Protein, His Tag, Acro Biosystems) in 1×PBST pH 7.4 for 120 sec to generate an association curve. In the dissociation phase, the antibody-antigen complex on the sensor was exposed to 1×PBST pH 7.4 or pH 5.4, for 300 sec. Association and dissociation phase curves were examined for the starting ABPC antibody (with no substitutions) and each corresponding antibody variant at pH 5.4 and pH 7.4 to inform on two criteria: a) enhanced dissociation (i.e., higher koff values) at pH 5.4 due to histidine or alanine substitution compared to the starting ABPC, (with no substitutions), and b) reduced dissociation at pH 7.4 (i.e., lower koff values) compared to pH 5.4 in the antibody variant itself and with the starting ABPC (with no substitutions). […] It was also noted that while some mutations obliterated TROP2 binding, others were tolerated with little or n change in TROP2 binding kinetics.
For each such table, the “MYT #” provides an identifier for each antigen binding protein (ABP), and the values from each column (reading along each row) provide characteristics and data associated with each ABP. […]

[6] = target: T4, Human TROP2 Protein, His Tag (Acro Biosystems) (human, UniProt P09758 27-274); experiment: BLI (Octet)
T4 construct: not shown: His tag
T4 sequence (looked up): T1 sequence (looked up)

[7] = target: T3, Human TROP2 Protein, His Tag (Acro …); experiment: BLI (Octet), Ab on anti-human Fc sensor, 50 nM TROP2-His; 1 = pH dependent
Experimental: After allowing for four days of protein expression, cell culture supernatants were collected, quantified by SDS-PAGE analysis (DNS), and the pH dependence of the variant was evaluated using biolayer interferometry (BLI) on an Octet RED 96e instrument. Briefly, cell culture supernatants were diluted based on qualitative expression level of the variant determined by visual examination of SDS-PAGE gels, 5 μL of cell culture supernatant was diluted into 195 μL of 1×PBST, pH 7.4 for high expressors, 25 μL of cell culture supernatant was diluted into 175 μL of 1×PBST, pH 7.4 for medium expressors and 100 μL of cell culture supernatant was diluted into 100 μL of 1×PBST, pH 7.4 for low expressors for loading onto the sensor tips. The resulting diluted supernatants were then captured on an anti-human Fc sensor (Forte Bio). A baseline was established using 1×PBST (50 mM Potassium Phosphate Buffer+150 mM NaCl+0.05% Tween 20) pH 7.4, and the sensor was associated with 50 nM of TROP2 (Human TROP2 Protein, His Tag, Acro Biosystems) in 1×PBST pH 7.4 for 120 sec to generate an association curve. In the dissociation phase, the antibody-antigen complex on the sensor was exposed to 1×PBST pH 7.4 or pH 5.4, for 300 sec. […]

[8] = target: T5, Human TROP2 Protein, His Tag (Acro Biosystems) (human, UniProt P09758 27-274); experiment: BLI (Octet) [2/2]
T5 construct: not shown: His tag
T5 sequence (looked up): T1 sequence (looked up)

[9] = target: T4, Human TROP2 Protein, His Tag (Acro …); experiment: Octet BLI, IgG on anti-human Fc sensor, 50 nM TROP2-His; 1 = pH dependent
[10] = target: T4, Human TROP2 Protein, His Tag (Acro …); experiment: as above; remark: listed apart in the source
[11] = target: T6, Human TROP2 Protein, His Tag (human, UniProt P09758 27-274); experiment: BLI (Octet), IgG on anti-human Fc sensor, 50 nM human TROP2-His; legend: 1 = pH dependent
T6 construct: Bought protein; also called TACSTD2; not shown: His tag
T6 sequence (looked up): T1 sequence (looked up)

[12] = target: T4, Human TROP2 Protein, His Tag (Acro …); experiment: Octet BLI, IgG on anti-human Fc sensor, 50 nM TROP2-His; 2 = No change vs parent

B1: MYT11741 (antibody, V domains shown)
VH: QVQLQESGPGLVKPSETLSLTCTVSGGSISSYGVHWIRQPPGKGLEWIGVIWTSGVTDYNSALMGRVTISVDTSKNQFSLKLSSVTAADTAVYYCARDGDYDRYTHDYWGQGTLVTVSS
VL: DIVMTQSPDSLAVSLGERATINCRASKSVSTSGYSYMHWYQQKPGQPPKLLIYLASNLESGVPDRFSGSGSGTDFTLTISSLQAEDVAVYYCQHSRELPYTFGQGTKLEIK
binding result [1]: binds
cytotoxicity on TROP2-positive NCI-H1975 cells (antibody complexed to secondary antibody-MMAF, cell titer glow assay) [2]: 30

B2: MYT12452 (hu7E6SVG variant, LCV substitutions at 94, 101 (Ala at 94)) (antibody, V domains shown)
VH: B1 VH with H106M
VL: B1 VL with H94A, T101H
notes: Full IgG in Expi293 supernatant
binding result [3]: binds

B3: MYT11773 (antibody, V domains shown)
VH: B1 VH with H106M
VL: B1 VL with Y100H
notes: hu7E6SVG variant, His at LCV position 100 (L3 08); screened as IgG in Expi293 supernatant
binding result [4]: binds

B4: MYT11583 (antibody, V domains shown)
VH: QVQLQQSGSELKKPGASVKVSCKASGYTFTNYGMNWVKQAPGQGLKWMGWINTYTHEPTYTDDFKGRFAFSLDTSVSTAYLQISSLKADDTAVYFCARGGFGSSYWYFDVWGQGSLVTVSS
VL: DIQLTQSPSSLSASVGDRVSITCKASQDVSIAVAWYQQKPGKAPKLLIYSASYRYTGVPDRFSGSGSGTDFTLTISSLQPEDFAVYYCQQHYITPLTFGAGTKVEIK
notes: Sacituzumab variant, His at HCV position 56 (H2 07)
binding result [5]: binds

B5: MYT12388 (antibody, V domains shown)
VH: QVQLVQSGAEVKKPGASVKVSCKASGYTFTTAGMQWVRQAPGQGLEWMGWINTHSGVPKYAEDFKGRVTISADTSTSTAYLQLSSLKSEDTAVYYCARSGFGSSYWYFDVWGQGTLVTVSS
VL: B4 VL with L4M, S20T, D28H, I31T, A51H, D60S, A100Q, V104L
notes: datopotamab VL 28, 51 substituted
binding result [6]: binds

B6: MYT11619 (antibody, V domains shown)
VH: B4 VH with H56G
VL: B4 VL with S50H
notes: Sacituzumab variant, His at LCV position 50 (L2 01)
binding result [7]: binds

B7: MYT13257 (antibody, V domains shown)
VH: B5 VH with R98H
VL: B4 VL with L4M, S20T, V29H, I31T, D60S, A100Q, V104L
notes: Full-length IgG from Expi293 supernatant; also called datopotamab heavy chain and light chain pairing variant
binding result [8]: binds

B8: MYT12399 (antibody, V domains shown)
VH: B5 VH
VL: B4 VL with L4M, S20T, D28H, I31T, A51H, D60S, Q89H, A100Q, V104L
notes: datopotamab VL 28, 51, 89 substituted
binding result [9]: binds

B9: MYT12317 (antibody, V domains shown)
VH: B4 VH with H56G, D63H, K65H
VL: B4 VL
notes: sacituzumab VH 63, 65 -> H
binding result [10]: binds

B10: MYT11687 (antibody, V domains shown)
VH: B5 VH
VL: B4 VL with L4M, S20T, I31T, A34H, D60S, A100Q, V104L
notes: IgG from supernatant; His at LCV position 34; also called datopotamab variant L1 11
binding result [11]: binds

B11: MYT12296 (antibody, V domains shown)
VH: B4 VH with Y32H, H56G, D62H
VL: B4 VL
notes: sacituzumab VH 32, 62 -> H
binding result [12]: binds

B12: MYT11616 (antibody, V domains shown)
VH: B4 VH with H56G
VL: B4 VL with A32H
notes: Sacituzumab variant, His at LCV position 32 (L1 09)
binding result [7]: binds

B13: MYT11688 (antibody, V domains shown)
VH: B5 VH
VL: B4 VL with L4M, S20T, I31T, S50H, D60S, A100Q, V104L
notes: IgG from supernatant; His at LCV position 50; also called datopotamab variant L2 01
binding result [11]: binds
